Legend:
[1] = tested on: Caco-2 (human colonic epithelial cell line); experiment: Uptake of labeled peptides by Caco-2 cells, photometric cell imaging; format: cell-based; conditions: for Average concentration of labeled peptide measured in cells, Caco-2: cells exposed to labeled peptide at 17 μM; for Photometric Cell Imaging (average counts/sec) Caco-2: 1 hr, background about 1×10^5 counts/sec
Procedure: Caco-2 and F1112 cells are cultured in Dulbecco's Modified Eagle Medium (DMEM) containing 10% (v/v) fetal bovine serum (FBS) and 50 μg/ml gentamycin at 37° C. in a 95% humidified atmosphere containing 5% CO2. The cells are grown in Falcon™ […] 75 cm^2 cell culture flasks until they reach confluency, then are detached with 0.25% trypsin and 0.02% EDTA and washed with DMEM.
Preparations used for photometric cell imaging are prepared by adding 1000 cells to a Nunc coverglass chamber (2.5 cm^2). Cells are cultured as described above for 3 to 7 days. The cell monolayers are rinsed three times with epithelial cell saline (pH 7.4).
Varying concentrations of fluoresceinated mTPs (100 μM) are added to epithelial cell saline to obtain a final working volume of 400 μl. Final concentrations added to the Caco-2, F1112 and MG cell monolayers as described above are 17 μM, 9 μM and 4 μM. Cells are incubated with the peptides for 1 hr in the dark at 37° C. in a 95% humidified atmosphere containing 5% CO2. At the end of the incubation period, the cell monolayer is rinsed three times with epithelial cell saline and 500 μl of epithelial cell saline is added.
Uptake of labeled peptides by cells is quantified using a photometric detector/cell-imaging system (PTI). An excitation scan is run to determine if uptake has occurred as indicated by peaks at the appropriate wavelengths and if the amount changes in a dose-dependent manner compared to unlabeled cells. A time-based scan is then performed at the optimal excitation and emission wavelength to quantify total uptake, using about 20 cells/view/replicate.

[2] = tested on: chloroplasts of triticale protoplasts; experiment: qRT-PCR of gfp mRNA, protoplasts transfected with pWCaadA16GFP; format: cell-based; conditions: gfp reporter construct
From the text: FIG. 20 is a plot showing the level of expression (fold increase, average of 4 replicates) of GFP in triticale protoplasts transfected with the pWCaadA16GFP plasmid in the presence of cTP1 (SEQ ID NO: 6), cTP2 (SEQ ID NO: 7), cTP3 (SEQ ID NO: 8), cTP4 (SEQ ID NO: 9) or cTP5 (SEQ ID NO: 10) compared to the level of expression (fold increase) of the internal control elongation factor 1a (EF1a), as measured by quantitative real time PCR of mRNA levels.
Wheat chloroplast aadA16GFP reporter plasmid (pWCaadA16GFP, FIG. 12) is a 4212 base pair wheat specific plastid transformation vector, which targets insertions into the tml-tmA inverted repeat regions of the Triticum aestivum plastid genome at nucleotides 92850-93727 and 93794-94671 (GenBank accession No. AB042240.3). A multiple cloning site is introduced following the tml target insertion sequence. The selection marker gene is an organelle codon specific aad-gfp fusion gene, which facilitates a dual selection method of spectinomycin resistance through an aadA derivative and visual detection by GFP fluorescence (GenBank accession No. ABX39486; Khan and Maliga, Nat. Biotechnol. (1999 September) 17(9): 910-5). The selection marker gene is driven by the Triticum aestivum plastid genome promoter (psbA) at nucleotides 1282-1153 (GenBank accession No. AB042240.3). The aad-gfp fusion gene is terminated with the rice psbA terminator sequence derived from chloroplast transformation vector pVSR326 nucleotides 4014-4387 (GenBank accession No. AF527485.1).
The dsDNA construct (pWMaadA16GFP for mitochondrial expression or pWCaadA16GFP for expression in chloroplasts) is combined with the mTP (for mitochondrial expression) or cTP (for expression in chloroplasts) in a final volume of 100 μl of CPW solution. For experiments using mTP1 (SEQ ID NO: 1), mTP2 (SEQ ID NO: 2), mTP3 (SEQ ID NO: 3), or mTP5 (SEQ ID NO: 5), peptides (scaled up from 100 ng, at four times the concentration needed to cause a DNA shift in the gel mobility shift assay (Table 7)) are combined with the pWMaadA16GFP construct (5 μg). For experiments using the remaining oTPs, peptides (30 μg) are combined with the appropriate dsDNA construct (1.5 μg). The mixture is incubated for 10 minutes at room temperature, then incubated with isolated triticale mesophyll protoplasts (500 μl, 10^6 protoplasts/ml, prepared as described in Example 2) for 1 h in the dark at room temperature. CPW solution (500 μl) is added and the mixture is incubated in the dark for 24 h. The cells are imaged using confocal microscopy, as described in Example 2, using MitoTracker® Orange staining to visualize mitochondria and chlorophyll autofluorescence to visualize chloroplasts.
cDNA is generated using a First Strand Synthesis kit (Invitrogen). RNA (1 μg) is added to each sample and the manufacturer's protocol for synthesis followed, with the exception that the volume of the reaction mixture is increased from 20 μl to 30 μl. A negRT sample containing all reagents but no RNA is included in the cDNA synthesis as a negative control.
Standard curves are generated for both elongation factor 1a (EF1a) (internal control) and green fluorescent protein (GFP) (test) genes. The EF1a curve is generated by pooling 6 μl of each cDNA sample (excluding the negRT control), then carrying out a serial dilution of 0.5 for 5 more dilutions. […]
Real time PCR reactions are performed using QuantiTect™ SYBR™ Green PCR Master Mix (Qiagen) in a 20 μl reaction volume. […]

With “MWWRRSRTNSLRYT (listed as Arabidopsis thaliana) [mTP4]” the “Average concentration of labeled peptide measured in cells, Caco-2” value (“Average concentration of labeled peptide” for short) [1] was 60 nm, the “Photometric Cell Imaging (average counts/sec) Caco-2” value ([1]; labeled peptide 4 μM) was 300000 counts/sec and the “Photometric Cell Imaging (average counts/sec) Caco-2” value ([1]; labeled peptide 9 μM) was 1200000 counts/sec. The “Photometric Cell Imaging (average counts/sec) Caco-2” value ([1]; labeled peptide 17 μM) was 1600000 counts/sec.
In the case of “MGGCVSTPKSCVGAKLR (listed as Arabidopsis thaliana) [cTP1]”, the “GFP expression by chloroplasts confirmed by qRT-PCR” value (shortened to “GFP expression”) [2] is reported as “GFP is expressed”.
“MLFRLRRSVRLRGLLA (listed as Arabidopsis thaliana) [mTP5]” was tested, and the “Average concentration of labeled peptide” value [1] was 60 nm, the “Photometric Cell Imaging (average counts/sec) Caco-2” value ([1]; labeled peptide 4 μM) was 280000 counts/sec and the “Photometric Cell Imaging (average counts/sec) Caco-2” value ([1]; labeled peptide 9 μM) was 650000 counts/sec. For the same sequence, the “Photometric Cell Imaging (average counts/sec) Caco-2” value ([1]; labeled peptide 17 μM) was 1600000 counts/sec.
MAAWMRSLFSPLKKLWIRMH (Zea mays) [mTP2] was tested, and the “Average concentration of labeled peptide” value [1] was 20 nm, the “Photometric Cell Imaging (average counts/sec) Caco-2” value ([1]; labeled peptide 4 μM) was 340000 counts/sec and the “Photometric Cell Imaging (average counts/sec) Caco-2” value ([1]; labeled peptide 9 μM) was 420000 counts/sec. For the same sequence, the “Photometric Cell Imaging (average counts/sec) Caco-2” value ([1]; labeled peptide 17 μM) was 490000 counts/sec.
In the case of “MFSYLPRYPLRAASARALVRATRPSYRSALLRYQ (listed as Triticum aestivum) [mTP1]”, the “Average concentration of labeled peptide” value [1] is reported as 70 nm, the “Photometric Cell Imaging (average counts/sec) Caco-2” value ([1]; labeled peptide 4 μM) is reported as 200000 counts/sec and the “Photometric Cell Imaging (average counts/sec) Caco-2” value ([1]; labeled peptide 9 μM) is reported as 1200000 counts/sec. For the same sequence, the “Photometric Cell Imaging (average counts/sec) Caco-2” value ([1]; labeled peptide 17 μM) was 1600000 counts/sec.
In the case of “MAALIPAIASLPRAQVEKPHPMPVSTRPGLVS (listed as Triticum aestivum) [cTP4]”, the “GFP expression” value [2] is reported as “GFP is expressed”.
“MKLLWRLILSRKW (listed as Arabidopsis thaliana) [mTP3]” was tested, and the “Average concentration of labeled peptide” value [1] was 60 nm, the “Photometric Cell Imaging (average counts/sec) Caco-2” value ([1]; labeled peptide 4 μM) was 460000 counts/sec and the “Photometric Cell Imaging (average counts/sec) Caco-2” value ([1]; labeled peptide 9 μM) was 1200000 counts/sec. For the same sequence, the “Photometric Cell Imaging (average counts/sec) Caco-2” value ([1]; labeled peptide 17 μM) was 1600000 counts/sec.
“MQTLTASSSVSSIQRHRPHPAGRRSSSVTFS (listed as Triticum aestivum) [cTP2]” was tested, and the “GFP expression” value [2] was “GFP is expressed”.
In the case of “MSSPPPLFTSCLPASSPSIRRDSTSGSVTSPLR (listed as Arabidopsis thaliana) [cTP5]”, the “GFP expression” value [2] is reported as “GFP is expressed”.
